This series concerns the target AbaAlkX Y300F (Acinetobacter baumannii, UniProt A0A0D5YK62 1-385, Y300F;V301L). Briefly: EMSA; 10 nM DNA; binding unaffected relative to WT. The settings on record: protein: recombinant; tags: His6-SUMO tag cleaved (3C); label: Cy5 on strand 1; FAM on strand 2 (both printed at 5' end); blunt; covalently crosslinked strands.

The text below walks through data of paper doi:10.64898/2025.12.11.693820, “DNA binding and lesion recognition by the bacterial interstrand DNA crosslink glycosylase AlkX”.

B1: 2F-NM8-ICL DNA (dsDNA)
DNA 1: TTTATTTTTATTTGACTTTTATTTTT
DNA 2: AAAAATAAAAGTCAAATAAAAATAAA
As to B1, the binding result is listed as “binds”.
